The source of these data is US20230287363, “DNA POLYMERASE, APTAMER, WARM-START DNA POLYMERASE AND PREPARATION METHODS AND APPLICATION THEREOF” (Sun Yat-Sen University, published 2023).

The target in the data set is T1, RHAU23-Bst (DHX36 RHAU23 peptide fused to N-terminus of Bst-LF) (Homo sapiens / Geobacillus …).
T1 chain: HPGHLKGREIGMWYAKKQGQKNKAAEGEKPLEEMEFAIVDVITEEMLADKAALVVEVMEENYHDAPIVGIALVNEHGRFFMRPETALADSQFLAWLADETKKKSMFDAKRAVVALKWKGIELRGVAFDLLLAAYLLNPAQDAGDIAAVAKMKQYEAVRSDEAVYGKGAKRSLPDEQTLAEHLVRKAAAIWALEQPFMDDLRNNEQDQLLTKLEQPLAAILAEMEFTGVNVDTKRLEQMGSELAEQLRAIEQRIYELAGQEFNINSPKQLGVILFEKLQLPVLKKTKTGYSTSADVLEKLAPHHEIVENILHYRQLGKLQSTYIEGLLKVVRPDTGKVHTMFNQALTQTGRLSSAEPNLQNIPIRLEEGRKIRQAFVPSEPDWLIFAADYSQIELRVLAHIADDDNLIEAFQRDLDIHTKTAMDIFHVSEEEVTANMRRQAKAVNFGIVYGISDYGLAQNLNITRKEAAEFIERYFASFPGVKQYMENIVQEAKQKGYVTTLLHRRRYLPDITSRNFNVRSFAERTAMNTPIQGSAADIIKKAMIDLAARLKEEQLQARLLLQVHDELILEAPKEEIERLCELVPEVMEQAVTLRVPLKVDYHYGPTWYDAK
Briefly: EMSA; Kd stated only as nM level; K+ buffer, 4 C. The following applies: tags: His-tag, pCold-I, E. coli BL21; label: 5'-FAM (EMSA); bulged G4 with flanking dsDNA. The protocol:
Oligonucleotides were purchased from Sangon Biotech Co., Ltd (China). Double-stranded DNAs (dsDNA) were paired from the complementary single-stranded DNA (ssDNA) by denaturing at 95° C. for 5 min and subsequently cooling to 25° C. in a buffer containing 10 mM Tris-HCl (pH 7.4), 75 mM KCl and 0.5 mM EDTA. 20 nM 5′-FAM-labeled aptamer DNA (Table 1) was dissolved in a first buffer, denatured at 95° C. for 5 min and subsequently cooled to 25° C. at a rate of 0.1° C./s; the first buffer contained 10 mM Tris-HCl (pH 7.4), 75 mM KCl, 0.5 mM EDTA, and 0.2 mg/ml BSA. Then each aptamer DNA and the specified concentration of DNA polymerase fused to G-quadruplex binding peptide were added into a second buffer, to bind at 4° C. for 1 hour, to form a DNA-protein complex; the second buffer contained 20 mM Tris-HCl (pH 8.8), 10 mM (NH₄)₂SO₄, 50 mM KCl, 2-8 mM MgSO₄, and 0.1% Tween-20.
The binding of aptamer to DNA polymerase was detected by electrophoretic mobility shift assay. Specifically, DNA-protein complex was electrophoresed on 8% or 12% non-denatured polyacrylamide gel containing 75 mM KCl at 4° C. for 2 h in 1×TBE buffer containing 75 mM KCl. The DNA-protein complex was photographed by the ChemiDoc MP imaging system (Bio-Rad) and digitized by the Image Quant 5.2 software.
A general note: In EMSA bound probe runs differently from free probe, usually more slowly.

B1: PDGFRB-Fd-G4 (structured_DNA)
DNA 1: CCTGAAGCAGACAGCTAGTGAATTCGGGAGGGCGGCGGGGCAGGGTACTTGCGTATAACTGTTCCATAGT
DNA 2: ACTATGGAACAGTTATACGCAAGTATTTTTTTTTTTTTTTTTTTTTGAATTCACTAGCTGTCTGCTTCAGG
As to B1, the binding result is on record as “binds”.

B2: T4B1-Fd-G4 (structured_DNA)
DNA 1: CCTGAAGCAGACAGCTAGTGAATTCGTTTTGGTGGGTGGGTGGGTACTTGCGTATAACTGTTCCATAGT
DNA 2: B1 DNA 2
With B2, the binding result is “binds”.
